Like-named read-outs stand apart in the source and are kept apart here.
Legend:
Fc-tagged FZD2 CRD [1] = molecular target: T1, Fc-tagged FZD2 CRD (Homo sapiens, UniProt Q14332)
Fc-tagged FZD4 CRD [2] = molecular target: T2, Fc-tagged FZD4 CRD (Homo sapiens, UniProt Q9ULV1)
Target sequence in this assay (Q9ULV1 40-161): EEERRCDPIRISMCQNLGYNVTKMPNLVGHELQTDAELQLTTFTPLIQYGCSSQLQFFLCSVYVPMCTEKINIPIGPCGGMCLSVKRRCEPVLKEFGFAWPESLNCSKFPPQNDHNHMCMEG

Fc-tagged FZD7 CRD [3] = molecular target: T3, Fc-tagged FZD7 CRD (Homo sapiens, UniProt O75084)
Fc-tagged FZD2 CRD [4] = molecular target: T1, Fc-tagged FZD2 CRD; assay: SPR; soluble F^P Fab or IgG injected over FZD-Fc immobilised on a GLC sensor by amine coupling; PBS, 0.05% Tween20, 0.5% BSA; 25 °C; 1:1 Langmuir model, global fit; details: both partners purified
Fc-tagged FZD1 CRD = molecular target: T4, Fc-tagged FZD1 CRD (Homo sapiens, UniProt Q9UP38); assay: as above; details: both partners purified
T4 construct: Frizzled-1, human, cysteine rich domain (CRD); also called FZD1-Fc; source: bought: R and D Systems

Fc-tagged FZD7 CRD [5] = molecular target: T3, Fc-tagged FZD7 CRD; assay: as above; details: both partners purified
Fc-tagged FZD4 CRD [6] = molecular target: T2, Fc-tagged FZD4 CRD; assay: as above; details: both partners purified

B1: FLAg 2+2 (anti-FZD2 paratope) (antibody, V domains shown)
VH: EVQLVESGGGLVQPGGSLRLSCAASGFNIYYSSIHWVRQAPGKGLEWVASIYPYYGYTYYADSVKGRFTISADTSKNTAYLQMNSLRAEDTAVYYCARYYHYGLDYWGQGTLVTVSS
VL: DIQMTQSPSSLSASVGDRVTITCRASQSVSSAVAWYQQKPGKAPKLLIYSASSLYSGVPSRFSGSRSGTDFTLTISSLQPEDFATYYCQQSYWHSYLITFGQGTKVEIK
- binding result (Fc-tagged FZD2 CRD [1]): binds

B2: FLAg 4+4 (anti-FZD4 paratope) (antibody, V domains shown)
VH: EVQLVESGGGLVQPGGSLRLSCAASGFNSSFYFMHWVRQAPGKGLEWVATVYPYLDYTYYADSVKGRFTISADTSKNTAYLQMNSLRAEDTAVYYCARAFPGSYHPMDYWGQGTLVTVSS
VL: DIQMTQSPSSLSASVGDRVTITCRASQSVSSAVAWYQQKPGKAPKLLIYSASSLYSGVPSRFSGSRSGTDFTLTISSLQPEDFATYYCQQSSYSLITFGQGTKVEIK
- binding result (Fc-tagged FZD4 CRD [2]): binds

B3: FLAg 7+7 (anti-FZD7 paratope) (antibody, V domains shown)
VH: EVQLVESGGGLVQPGGSLRLSCAASGFNISSSSMHWVRQAPGKGLEWVASIYSYYGSTYYADSVKGRFTISADTSKNTAYLQMNSLRAEDTAVYYCARWYGMDYWGQGTLVTVSS
VL: DIQMTQSPSSLSASVGDRVTITCRASQSVSSAVAWYQQKPGKAPKLLIYSASSLYSGVPSRFSGSRSGTDFTLTISSLQPEDFATYYCQQPGSWYFPPITFGQGTKVEIK
- binding result (Fc-tagged FZD7 CRD [3]): binds

B4: F^P Fab (Fab, V domains shown)
VH: EVQLVESGGGLVQPGGSLRLSCAASGFNIGSSSIHWVRQAPGKGLEWVASIYSAFASTSYADSVKGRFTISADTSKNTAYLQMNSLRAEDTAVYYCARYHFPFGFALDYWGQGTLVTVSS
VL: DIQMTQSPSSLSASVGDRVTITCRASQSVSSAVAWYQQKPGKAPKLLIYSASSLYSGVPSRFSGSRSGTDFTLTISSLQPEDFATYYCQQGVYLFTFGQGTKVEIK
notes: VH as the F^P VH of m1; constant part of the Fab heavy chain; the Fab construct is not described; VL as the F^P VL of m1; constant part of the Fab light chain; Parent paratope of the N-terminal diabody of m1; also called pan-FZD Ab (F^P); source: Expi293F, transient transfection, purified (rProtein A Sepharose)
- binding result (Fc-tagged FZD2 CRD [4]): binds
- binding result (Fc-tagged FZD1 CRD): binds
- binding result (Fc-tagged FZD7 CRD [5]): binds
- binding result (Fc-tagged FZD4 CRD [6]): binds

— paper PMC6711705, “Tailored tetravalent antibodies potently and specifically activate Wnt/Frizzled pathways in cells, organoids and mice” (eLife, 2019)
